According to patent US20230295308A1, “ANTAGONISTIC BIPARATOPIC ANTIBODIES THAT SPECIFICALLY BIND FIBROBLAST GROWTH FACTOR RECEPTOR 2 AND METHODS OF USING SAME” (The Broad Institute, Inc., priority 2020, published 2023):
Entries after “also recorded” stand apart in the source; their conditions may differ.

B1: Biparatopic antibody B/N12 (bispecific antibody, V domains shown)
VH 1: EVQLLESGGGLVQPGGSLRLSCAASGFTFSSYAMSWVRQAPGKGLEWVSAISGSGTSTYYADSVKGRFTISRDNSKNTLYLQMNSLRAEDTAVYYCARVRYNWNHGDWFDPWGQGTLVTVSS
VL 1: QSVLTQPPSASGTPGQRVTISCSGSSSNIGNNYVSWYQQLPGTAPKLLIYENYNRPAGVPDRFSGSKSGTSASLAISGLRSEDEADYYCSSWDDSLNYWVFGGGTKLTVLG
VH 2: QVQLVQSGAEVKKPGESLKISCKGSGYSFTNYYIHWVRQMPGKGLEWMGAIYPDNSDTTYSPSFQGQVTISADKSISTAYLQWSSLKASDTAMYYCARGADIWGQGTLVTVSS
VL 2: DIQMTQSPSSLSASVGDRVTITCRASQDIDPYLSNWYQQKPGKAPKLLIYDASNLQSGVPSRFSGSGSGTDFTLTISSLQPEDFATYYCQQTTSHPYTFGQGTKVEIK

Assays:
[1] = system: NIH3T3 cells transformed with FGFR2-BICC1, FGFR2-AHCYL1, and FGFR2-PHGDH fusions; assay: growth of NIH3T3 cells transformed with FGFR2 fusions (FIG. 5); format: cell-based
Source text: (§1) NIH3T3 cells transformed with FGFR2-BICC1, FGFR2-AHCYL1, and FGFR2-PHGDH fusions were also sensitive to BGJ398 treatment (FIG. 5).

[2] = system: FGFR2-fusion transformed BaF3 cells; assay: viability assay of BaF3 cells expressing FGFR2 fusions (FIG. 2); format: cell-based
Source text: A table showing IC50 (μM) is also provided.
as §1

[3] = system: FGFR2 fusion-positive ICC; conditions: phase II trial; cited from earlier work
[4] = system: NIH3T3 cells overexpressing FGFR2-BICC1 fusion; assay: NIH3T3 FGFR2-BICC1 cell confluency, Incucyte (FIGS. 19A-19E); format: cell-based; conditions: 60 hours, 0.013-1 μM
Procedure: FIGS. 19A-19E present graphs showing the ability of biparatopic antibodies to impact FGFR2-fusion driven cell growth in NIH3T3 cells molecularly engineered to overexpress FGFR2-BICC1 fusion. […] The nomenclature of the biparatopic antibodies is based on the designations and descriptions of the parental antibodies presented in FIG. 7B.
(§2) The impact of biparatopic antibodies on FGFR2-fusion driven cell growth was assessed in a cell-based assay using biparatopic antibodies that bind to the ECD of FGFR2 and generated as described supra (Example 4). As described herein, the biparatopic antibodies were added to cultures of cells (e.g., NIH3T3 cells or BaF3 cells) molecularly engineered to overexpress FGFR2 fusion.
For assays using NIH3T3 cells, (FIGS. 19A-19E), NIH3T3 cells overexpressing a FGFR2-BICC1 fusion construct were plated in 384 black well plates at a concentration of 1000 cells/well overnight. 6 parental antibodies and 13 biparatopic antibodies were added to each well in duplicates at various concentrations ranging from 1 μM to 0.013 μM (1 μM, 0.833 μM, 0.600 μM, 0.450 μM, 0.316 μM, 0.233 μM, 0.166 μM, 0.125 μM, 0.091 μM, 0.066 μM, 0.048 μM, 0.035 μM, 0.025 μM, 0.018 μM, and 0.013 μM). The cell confluency was measured using Incucyte at 60 hours post treatment, and the IC50 curves were generated using non-linear fit in PRISM 9 software.

[5] = molecular target: FGFR2b alpha IIIb antigen (UniProt P21802); assay: SPR (Biacore), KD matrix by the two arms; unit M from FIG. 17B and paragraph 180; FIG. 17B prints 9.1E-10 for the same antibody
[6] = system: BaF3 cells overexpressing FGFR2-PHGDH fusion; assay: BaF3 FGFR2-PHGDH cell survival, CellTiter-Glo (FIGS. 18A-18D); format: cell-based; conditions: no IL3, no FGF, 5 days, 0.013-1 μM
Source text: FIGS. 18A-18D present graphs showing the ability of biparatopic antibodies to impact FGFR2-fusion driven cell growth in BaF3 cells molecularly engineered to overexpress FGFR2-PHGDH fusion. […] These biparatopic antibodies were also more efficient at inhibiting growth of BaF3 cells overexpressing the FGFR2-PHGDH fusion compared to their parental antibodies. The nomenclature of the biparatopic antibodies is based on the designations and descriptions of the parental antibodies presented in FIG. 7B.
as §2
In particular, for assays using BaF3 cells (FIGS. 18A-18D), BaF3 cells overexpressing empty vector control or FGFR2-PHGDH fusion construct were plated in the absence of IL3 and FGF in 384 black well plates at a concentration of 750 cells/well overnight. […] The cell survival was measured using CellTiter-Glo at 5 days post treatment and the IC50 curves were generated using non-linear fit in PRISM 9 software. […]

[7] = molecular target: FGFR2b alpha IIIb antigen (UniProt P21802); assay: SPR (Biacore), antibody immobilized, FGFR2b alpha IIIb in flow

Molecule	sensitivity of NIH3T3 cells transformed with FGFR2 fusions [1]	sensitivity of FGFR2-fusion transformed BaF3 cells (viability) [2]	efficacy in patients with FGFR2 fusion-positive ICC [3]	inhibition of growth of NIH3T3 cells overexpressing FGFR2-BICC1 compared to parental antibodies [4]	Kd [5]	inhibition of growth of BaF3 cells overexpressing FGFR2-PHGDH compared to control cells overexpressing empty vector [6]	Binding Stoichiometry [7]	Kd [7]
CCN1CCN(c2ccc(Nc3cc(N(C)C(=O)Nc4c(Cl)c(OC)cc(OC)c4Cl)ncn3)cc2)CC1 [NVP-BGJ398]	sensitive	sensitive; also recorded: showed sensitivity	encouraging efficacy					
B1				more efficient and potent; also recorded: more effective and potent	0.82 nM	more efficient and potent; also recorded: more effective and potent	1.3	0.91 nM
